Source: the NTF2 design screens of Basanta et al. (2020)

Assay: protease stability score; higher = more stable; yeast display proteolysis, trypsin and chymotrypsin;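 further: relative to predicted unfolded state with 0 unfolded-like and 1 meaning tenfold more protease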

| Sequence | protease stability score |
| --- | --- |
| DEEKEIHEELVRIWNHAVNTGNEELMERLMDPNVRLLYNGVDLIGMEHAREFNKRFDHLKIRRNEIKSFRVQGNKIDSDTHVDVELNINGKTLRVQQDQHWVVLKVDGRWYIHKIEIL | 0.799 |
| DEEKEISELLFRLIFHMLETGDEELSRRLLDPNTRTIWNGRHLHGREASELMRRILHHFVKGATTEIKDLKVQGDWMHFHVTIHIGDKRIRTEIIVHTIDGRIDSMEFRVT | 1.39 |
| DEEKEISKKATEILISILRTGDEDVMREYLDPHVRIDFNGKQLHGMDYLWRLLKHMRLRSLDVHSFHFVDGVIEVDSRSDGEVNGQRTDYHFHFIIEKVNGKWWLHKVKFE | 1.64 |
| DEEKEIVENTTRLYWHLMETGNFDRWMKEADPNTRQDVDGKELHGMELVAHRIRELLEKFKGVRFHVEDIKIINGRSHMDIRIIIGDKHIEAHLILLVVDGRLKHVSLIIR | 1.99 |
| DEEKEKAKEFLHEWFRSLETGDEDLLTKLLDPNARMDINGQRFVGRHDIQRFISELREKIPNMQIDFHDQEMTDVNGVVQVDMRVDIHYGDKSSHHRLHVYVLKINGRWINKHIHVRTK | 1.16 |
| DEEKELADYISHLLVENLKTGDWHSLRRLIDPNARLEYGDKEHHGWKEIYESKRHLDEELGVKHVNINIHRINYQGEKVEIDGEVRIHFNGRTENRKVNIELRIFNGRIKEVIVDIR | 1.17 |
| DEEKELNENLAKIILHMFHTGDEKRWSKMADPHMRANINGVTIHGRELVIKEFLHWRHRLGVKHEEIHHIDIQGDKVRTDSHVDIDGQRVNIILRVVVVNGRLHSEEVEIR | 0.787 |
| DEEKELNRHLAELWLHWWFTGDEEVITEMADPEVRFEVDGRTFHGRETLSRMISEKKRDLGADHERLRDVKVIGDKVHIESVIHVNGRELEVHIIIVVYNGRLKELRVEVK | 1.04 |
| DEEKELSKKLLEVFIKVMRTGDWRAFSERLDPHTRTDVNGVDIHGRENTLELLRRLEEEWGVSRVDVRIHDADHQGDYIKFDGIEIYNGVERRTRMVSEKFNGRWRNKIFILD | 0.238 |
| DEEKEMNRHFLEHLKTAYETGDEDSIIKNIDPHYRIIVGDKDLIGMEHVKKWLHHARIHEIHPRRLEVQGNKITNDIHVVGEVNGVLRSTDQIWYLLKVDGRWLIESIEIK | 1.11 |
| DEEKERMEELLRLWVEAVRTGDEETLHKLMDPDVRIEYGDKDHHGREEMHRMMREWYERVDVINTYHVRRIKIVDGKARVDAELDGTIDGKRVIFREILISSKYNGQWTVTSISIK | 1.43 |
| DEEKERMFEHWEDVLRDWYTGNEDNLRHLFDPHARTDVNGVELHGMDLISEVLRRHLEEIRIKSMHLRELRSVDGRIHEHGELRGRVNGVDVRREVRVHLTVVNGRMKEMRFENI | 0.394 |
| DEEKERSDRLYERFFTAIFTGDEDLIRKLLDPDTRYQIGDKSSHGRDDIYDRIREMRNKVPNLRWDIRHVRIQGEKVHLDVEFNVNGKRDEFHIELDIVNGRLRHIRIEPV | 1.24 |
| DEEKESAERWLHIFLHSMDTGDEDKIRKLLDPNVLNDVGDKVLIGRELAFKWFHHLRFRKVHLRDFRIINGRIEVDIDVRGEINGKEDHFRLEVDLRKINGRWVLHEIRID | 2.81 |
| DEEKETAHEIHRILIKAWITGDEDTLNELLDPNVRIDINGVDTHGMEELKRVFEEHKKEIRWKDVRPRHIHVINGQIHSDTDHNGVVNGVTRTRKAHWIIVVIDGKVHSIKFIIH | 1.29 |
| DEEKEVMKELYEMLIHDLLTGNEESLHKLLDPHVKVDIDGKILHGMEATVKWWKEAGADHTDIHSVERQGEKIIINMILRVGDKTLRLHVHIIVVNGRVESIRVELRHE | 1.01 |
| DEEKEYAIRILREFTKYWETGDFERMKELFDPNARLEIGDKRAVGRDKVLEVLLRELHELRFKHFELREEDVIGEKKHSELIVHMEIDGVWHRRNIRVEIVVIDGKIHRMRFEQH | 2.37 |
| DEEKHEALRLTREFLKLFFTGDWEKLVRLIDPDAKVEIGNFESVGRENIAHLLHLLNEEWRINDMRIHSFTVVNGQVRMDTEINGIYGDKNYETRTEIESVVIDGRLKHFSIRER | 1.24 |
| DEEKHEFELLLRLWLRTMETGDEQMSRRLVDPNVRIEIGDKDIHGREEMSRIVRHWRVHDYDIKDSTVQGDKAHLDGHIEGTIDGKTTRFHIHLNLEKINGRWLIKEVVVE | 2.19 |
| DEEKHELEERVRLHIERWKTGDEDTLRHYADPDVRTHIDVGDKKFNYHGREEIVQAYKHLLDQLGVKHSEIDRSTAVNGVVHLHMTLRFDGVRMEWRIDIWIIDGRTKTIHIEIRHR | 0.942 |
